{"source": "patent US7091311", "biological_target": "murine receptor (mouse) (UniProt Q08351)", "sequence (Q08351 26-625)": "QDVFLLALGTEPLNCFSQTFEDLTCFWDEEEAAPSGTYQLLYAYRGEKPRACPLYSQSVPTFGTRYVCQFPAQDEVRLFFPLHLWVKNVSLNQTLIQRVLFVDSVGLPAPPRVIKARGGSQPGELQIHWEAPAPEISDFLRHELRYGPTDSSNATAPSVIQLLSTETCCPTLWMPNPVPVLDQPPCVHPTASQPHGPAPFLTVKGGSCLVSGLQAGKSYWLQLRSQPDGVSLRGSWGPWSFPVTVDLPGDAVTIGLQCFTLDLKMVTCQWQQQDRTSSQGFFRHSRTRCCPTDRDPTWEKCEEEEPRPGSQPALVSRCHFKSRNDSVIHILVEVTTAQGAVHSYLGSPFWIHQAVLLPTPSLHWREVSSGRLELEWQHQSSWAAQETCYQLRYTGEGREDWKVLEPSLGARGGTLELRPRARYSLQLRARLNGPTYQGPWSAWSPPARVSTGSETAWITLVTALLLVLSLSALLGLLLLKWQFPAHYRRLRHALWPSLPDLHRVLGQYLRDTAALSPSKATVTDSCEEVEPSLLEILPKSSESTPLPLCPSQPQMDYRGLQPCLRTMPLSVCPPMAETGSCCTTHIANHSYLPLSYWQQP", "test": "cell-based or functional assay", "data": [{"substance": "recombinant human TPO (from UniProt P40225 22-353) (ligand)", "values": [{"measurement": "colonies of 3-5 large cells, mouse marrow in methylcellulose, 1 nM TPO #1-1", "result": 15, "unit": "colonies"}, {"measurement": "colonies of 3-5 large cells, mouse marrow in methylcellulose, 1 nM TPO #1-2", "result": 12, "unit": "colonies"}, {"measurement": "colonies of 3-5 large cells, mouse marrow in methylcellulose, 1 nM TPO #2-1", "result": 16, "unit": "colonies"}, {"measurement": "colonies of 3-5 large cells, mouse marrow in methylcellulose, 1 nM TPO #2-2", "result": 13, "unit": "colonies"}, {"measurement": "colonies of 6-12 large cells, mouse marrow in methylcellulose, 1 nM TPO #1-1", "result": 6, "unit": "colonies"}, {"measurement": "colonies of 6-12 large cells, mouse marrow in methylcellulose, 1 nM TPO #1-2", "result": 1, "unit": "colonies"}, {"measurement": "colonies of 6-12 large cells, mouse marrow in methylcellulose, 1 nM TPO #2-1", "result": 8, "unit": "colonies"}, {"measurement": "colonies of 6-12 large cells, mouse marrow in methylcellulose, 1 nM TPO #2-2", "result": 3, "unit": "colonies"}]}]}
